{"source": "paper PMC4399817", "key": {"[1]": {"target": "HLA-B27.C101S, C-terminally Sv5 tagged misfolding mutant of HLA-B*27:05 (human)", "experiment": "non-reducing SDS-PAGE and immunoblot"}, "[2]": {"target": "HLA-B27.C164S, C-terminally Sv5 tagged misfolding mutant of HLA-B*27:05 (human)", "experiment": "non-reducing SDS-PAGE and immunoblot"}, "[3]": {"target": "HLA-B*27:05 heavy chain, carboxy terminally Sv5 tagged, stably expressed in isogenic HeLa cells (HeLa-B27.Sv5) (human)", "experiment": "pulse chase, immunoprecipitation and non-reducing SDS-PAGE"}}}
{"substance": "HLA-B27.C101S, C-terminally Sv5 tagged misfolding mutant of HLA-B*27:05 (natural protein)", "values": [{"measurement": "stoichiometry N", "setting": "[1]", "value": 2}]}
{"substance": "HLA-B27.C164S, C-terminally Sv5 tagged misfolding mutant of HLA-B*27:05 (natural protein)", "values": [{"measurement": "stoichiometry N", "setting": "[2]", "value": 2}]}
{"substance": "HLA-B*27:05 heavy chain, carboxy terminally Sv5 tagged, stably expressed in isogenic HeLa cells (HeLa-B27.Sv5) (natural protein)", "values": [{"measurement": "stoichiometry N", "setting": "[3]", "value": 2}]}
